These results are taken from patent publication US20130101549A1 (Biogen, published 2013).

The target of test [1] is T1, murine HER2-Fc (mouse; human, UniProt P70424 23-653).
T1 construct: extracellular domain; Bought from R&D Systems; also called murine ErbB2-Fc; not shown: Fc fragment of human IgG1
The test is described as follows: ELISA on coated muHER2-Fc, HRP anti-human kappa; the number is C of the printed 4-P fit y=(A-D)/(1+(x/C)^B)+D (A 0.002, B 0.792, D 0.827, R^2 0.999); x axis: Fab equivalent concentration; C lies beyond the last point (about 14000 ng/ml, OD about 0.28): extrapolated by the fit.

In a further test the target is T2, EGFR on MDA-MB-468 cells (UniProt P00533 25-1210, limits assumed).
T2 construct: whole, on cells; also called MDA-MB-468 tumor cell line (EGFR+, HER2-)
The test is described as follows: FACS on MDA-MB-468 cells (EGFR+, HER2-).

For test [2], the target named is T3, Her2-Fc D1-D2-D3-D4 (MR069).
T3 construct: made in house, kept apart from the R&D Systems HER2-Fc; also called ErbB2-Fc full length ECD
Nature of the test: ELISA, HER2-Fc construct captured by anti-huFc, Fab from 1 ug/ml in 5-fold steps, HRP anti-kappa/lambda. As to the method:
(§1) Nunc Maxisorp ELISA plates were coated with 5 ug/ml rabbit pAbs anti-human Fc gamma in PBS overnight at 4 degrees. Plates were washed one time with PBST (PBS, 0.05% tween 20) and blocked with 1% BSA in PBS for one hour at room temperature. Plates were washed one time with PBST and incubated with 1 ug/ml HER2-Fc fusion protein for one hour. Plates were washed three times with PBST and dilutions of Fab (four 5-fold serial dilutions, starting at 1 ug/ml) in block were added and incubated for ninety minutes. Plates were washed three times with PBST and incubated with 1:2,000 HRP-labelled goat anti-human kappa (Southern Biotech cat#2060-05) and HRP-labelled goat anti-human lambda (Southern Biotech cat#2070-05) in block for one hour at room temperature. Plates were washed three times with PBST, developed with TMB solution for 5 minutes, and stopped with equal volume 1 N H₂SO₄. Absorbance values were read at 450 nm.
On the technique in general: An ELISA detects its analyte on a solid surface through an enzyme-linked reagent.

For another test, the target named is T4, Her2-Fc D1 (MR066).
T4 construct: also called ErbB2-Fc Domain 1
T4 chain: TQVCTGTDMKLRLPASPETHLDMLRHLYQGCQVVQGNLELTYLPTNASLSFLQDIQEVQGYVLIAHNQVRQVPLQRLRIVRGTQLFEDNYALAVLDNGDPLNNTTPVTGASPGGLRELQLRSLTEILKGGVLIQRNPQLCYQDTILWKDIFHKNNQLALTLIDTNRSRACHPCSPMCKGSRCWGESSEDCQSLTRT
Described as above. The protocol: as §1

The next test concerns the target T5, Her2-Fc D1-D2-D3 (MR068).
T5 construct: also called ErbB2-Fc Domains 1-3
The description is as above. As to the method:
as §1

The next test addresses T6, Her2-Fc D1-D2 (MR067).
T6 construct: also called ErbB2-Fc Domains 1-2
T6 chain: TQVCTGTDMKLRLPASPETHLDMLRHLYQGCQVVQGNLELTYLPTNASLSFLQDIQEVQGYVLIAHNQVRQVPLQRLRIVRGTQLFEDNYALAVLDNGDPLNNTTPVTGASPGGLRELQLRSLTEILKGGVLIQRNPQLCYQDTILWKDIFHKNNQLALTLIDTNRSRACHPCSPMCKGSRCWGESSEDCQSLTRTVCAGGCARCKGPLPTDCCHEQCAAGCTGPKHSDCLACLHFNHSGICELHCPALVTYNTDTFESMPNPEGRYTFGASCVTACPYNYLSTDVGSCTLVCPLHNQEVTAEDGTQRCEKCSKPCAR
Described as above. As to the method:
as §1

Test [3] concerns the target T7, human HER2/ErbB2 on cells (human, UniProt P04626 23-1255).
T7 construct: whole, on cells; also called hHER2/ErbB2; wild type HER2/ErbB
The test is described as follows: flow cytometry on CHO cells expressing human HER2. The protocol: CHO cells (Chinese Hamster Ovary cells) stably transfected with hHER2 expression vector and selected in G418 containing medium. G418 resistant clones were pooled and split 24 hours prior to the setup of the assay to obtain 70% confluent monolayer. Routinely, CHO cell line was maintained within 20 passages. Cells were lifted with cell dissociation buffer (Gibco catalog #13151-014), counted, washed and adjusted to 1×10⁶ cells/ml and one ml of cells were then added to each tube (12×75 mm tube Falcon catalog #352054). Cells were pelleted and supernatant removed by centrifugation at 1200 rpm for 5 min and 100 μl of diluted antibodies were then added to the cell pellet. Purified Fabs were tested at a starting concentration of either 210 or 60 μg/ml with 1:3 dilutions in FACS buffer, down to 0.001 μg/ml. FACS buffer used throughout the assay was PBS (without Ca^{+±}/Mg^{+±}) containing 1% BSA (Sigma catalog #A-7906) and 0.1% Sodium Azide (Sigma catalog #S2002). Samples were allowed to incubate on ice for 1 hour and 15 minutes then were washed with 2 ml FACS buffer and centrifuged at 1200 rpm for 5 minutes at 4° C. The supernatant was aspirated and 100 μl of the secondary detection antibody was added to each corresponding tube in FACS buffer. Samples were then incubated for 30 minutes on ice, in the dark. Cells were washed as described above, then, re-suspended in 250 μl FACS buffer per tube/sample.
A full titration was performed on MCF7 and SKBR3 tumor cell lines, and human Her2-CHO and murine Her2-CHO cell lines in order to calculate an approximate EC50 (data not shown, see summary in Table 1).

Test [4] concerns the target T8, human HER2-Fc (human, UniProt P04626 23-652).
T8 construct: Bought from R&D Systems: homodimeric fusion of the HER2 extracellular domain and human IgG1 Fc; also called human ErbB2-Fc; rhErbB2-Fc; not shown: Fc fragment of human IgG1
Nature of the test: ELISA on coated huHER2-Fc, HRP anti-human kappa; the number is C of the printed 4-P fit y=(A-D)/(1+(x/C)^B)+D (A -0.004, B 0.92, D 0.931, R^2 1); x axis: Fab equivalent concentration; last point about 13000 ng/ml at OD about 0.73, upper plateau not reached by the points.

Test [5] has as its target T1, murine HER2-Fc. Nature of the test: ELISA on coated muHER2-Fc, HRP anti-human kappa; the number is C of the printed 4-P fit (A -0.002, B 0.6, D 1.035, R^2 1); x axis: Fab equivalent concentration; C lies beyond the last point (about 120 ng/ml, OD about 0.4): extrapolated by the fit.
The target in test [6] is T8, human HER2-Fc. Nature of the test: ELISA on coated HER2-Fc. As to the method: Human and murine ErbB2-Fc were obtained from R&D Systems. Wells of 96-well plates were coated with 2 ug/ml or 0.2 ug/ml of human or murine HER2-Fc by incubation overnight at 4-8° C. with either of these six proteins (80 ul/well of a 0.2 or 2 ug/ml solution in PBS). Wells were emptied, filled completely with a solution of PBS with 1% BSA (blocking buffer) and incubated at room temperature for 1 hour. Wells were emptied, washed twice PBS containing 0.05% Tween 20 (PBST) and filled with the samples (80 ul/well of 3× dilution series of the standard and supernatants in blocking buffer) prepared in another 96-well plate. After a 2-hour incubation at room temperature, the wells were emptied, washed three times with PBST and filled with a solution of HRP-conjugated goat pAbs anti-human kappa chain (80 ul/well of a 2000-fold dilution in blocking buffer). After 1-hour incubation, the wells were emptied and filled with a solution of HRP substrate prepared freshly. The color was left to develop for 3 minutes and was stopped by addition of an equal volume of 1N H₂SO₄. Absorbance was measured at 450 nm using a Plate Reader (SpectraMax, Molecular Devices). The data was processed and graphs were created using SoftMax Pro software.

The target in test [7] is T8, human HER2-Fc. Nature of the test: ELISA on coated huHER2-Fc, HRP anti-human kappa; the number is C of the printed 4-P fit (A 0.008, B 1.216, D 0.834, R^2 1); x axis: Fab equivalent concentration.
In test [8] the target is T7, human HER2/ErbB2 on cells. Nature of the test: FACS on HER2-expressing cells.

B1: BIIB71F10 Fab (Fab, V domains shown)
VH: EVQLLESGGGLVQPGGSLRLSCAASGFTFSSYGMVWVRQAPGKGLEWVSSISSSGGLTWYADSVKGRFTISRDNSKNTLYLQMNSLRAEDTAVYYCASPPGIAVARDYWGQGTLVTVSS
VL: DIQMTQSPSSLSASVGDRVTITCRASQGISNYLAWYQQKPGKVPKLLIYAASTLQSGVPSRFSGSGSGTDFTLTISSLQPEDVATYYCQKYNSALLTFGGGTKVEIK
notes: Soluble human Fab; also called Fab 71F10
B1: the EC50 (as a rule, the concentration at which the effect is half-maximal) with murine HER2-Fc [1] is 31.8 µg/mL; in test [3] it was 60 nM; with human HER2-Fc [4] it was 3.43 µg/mL. The binding result in the test with EGFR on MDA-MB-468 cells was “no binding”; in test [2], “binds”; with Her2-Fc D1 (MR066), “no binding (tested: 1 ug/ml)”; with Her2-Fc D1-D2-D3 (MR068) it was “binds”; with Her2-Fc D1-D2 (MR067), “binds”.

B2: BIIB71F10 Mab (BIIB71F10-134, 71F10 IgG) (antibody, V domains shown)
VH: EVQLLESGGGLVQPGGSLRLSCAASGFTFSSYGMVWVRQAPGKGLEWVSSISSSGGLTWYADSVKGRFTISRDNSKNTLYLQMNSLRAEDTAVYYCASPPGIAVARDYWGQGTLVTVSS
VL: DIQMTQSPSSLSASVGDRVTITCRASQGISNYLAWYQQKPGKVPKLLIYAASTLQSGVPSRFSGSGSGTDFTLTISSLQPEDVATYYCQKYNSALLTFGGGTKVEIKR
notes: IgG1; also called BIIB71-F10 antibody
As for B2, the half-maximal effective concentration (EC50) with murine HER2-Fc [5] is 0.248 µg/mL; with human HER2-Fc [6], 0.07 nM; with human HER2-Fc [7] it was 0.00634 µg/mL; in test [8], 2 nM.
